Results as given in patent publication US20230265201A1 (published 2023).
Positions count from the first letter of the chain named.

T1: recombinant human CD70 (Flag-TNC-CD70) (human, UniProt P32970 39-193)
T1 construct: extracellular domain; also called recombinant CD70; human Flag-TNC-CD70; not shown: Flag tag and TNC trimerisation domain
T1 sequence (looked up): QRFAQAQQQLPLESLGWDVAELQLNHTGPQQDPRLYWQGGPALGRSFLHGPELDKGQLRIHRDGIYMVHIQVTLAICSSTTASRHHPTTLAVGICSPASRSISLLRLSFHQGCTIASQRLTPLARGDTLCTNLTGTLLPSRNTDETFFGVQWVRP

T2: rhesus recombinant CD70 (FLAG-TNC-rhesus CD70) (rhesus macaque (Macaca mulatta), UniProt F7GPA5 174-316)
T2 construct: also called rhesus Flag-TNC-CD70; Rhesus monkey; not shown: Flag tag and TNC trimerisation domain
T2 sequence: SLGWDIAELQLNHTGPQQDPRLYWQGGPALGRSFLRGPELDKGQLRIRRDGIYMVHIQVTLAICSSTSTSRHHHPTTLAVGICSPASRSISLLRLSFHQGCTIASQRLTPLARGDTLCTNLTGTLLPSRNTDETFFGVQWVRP

T3: human CD70 on the surface of cells (human, UniProt P32970 1-193)
T3 sequence (looked up): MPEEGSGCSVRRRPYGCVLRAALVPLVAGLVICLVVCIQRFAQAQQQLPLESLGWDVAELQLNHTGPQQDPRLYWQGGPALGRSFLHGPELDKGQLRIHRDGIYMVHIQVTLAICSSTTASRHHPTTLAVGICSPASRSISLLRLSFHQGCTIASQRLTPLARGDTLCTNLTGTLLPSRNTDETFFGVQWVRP

B1: 9E1 Fab (Fab, V domains shown)
VH: EVQLQESGGGVVQPGGSLRLSCAASGFTFDDYAMSWVRQAPGKGLEWVSSIYMYDSSTYYADSVKGRFTISTDNAKNTVYLQMNSLKSEDTAVYYCAKDINRSYGSSWSHFGPIFSSWGQGTQVTVSS
VL: QAVVTQEPSLSVSPGGTVTLTCGLTSGSVTSSNYPDWYQQTPGQAPRLLIYNTNSRHSGVPSRFSGSISGNKAALTITGAQPEDEADYYCNLYMGSGGSKVFGGGTKLTVLG
notes: Llama-derived Fab from phage display; MYC tag at C-terminus of Fd
B2: 1C2 Fab (Fab, V domains shown)
VH: ELQVVESGGGLVQPGGSLRLSCAASGFTLSNYWMHWVRQAPRKGLEWVSTISTDNSRTYYADSVKGRFTISRDHAKNTLILQMNSLKSEDTAVYYCIRGSDYEHWGQGTQVTVSS
VL: QTVVTQEPSLSVSPGGTVTLTCGLSSGSVTTTNYPGWFQQTPGQAPRTLIYSTSSRHSGVPSRFSGSISGNKAALTITGAQPEDEADYYCALEEIGSYTYMFGGGTHLTVLG
notes: as for B1
B3: 57B6 chimeric llama-human mAb (antibody, V domains shown)
VH: QLQLVESGGGLVQPGGSLRLSCAASGFSFSHYAMSWVRQAPGKGLEWVSGDNTYDGGTRYQDSVKGRFTISRDNGKNTLYLQMNSLKPEDTAVYYCAKDTGRGIMGEYGMDYWGKGTLVTVSS
VL: QTVVTQEPSLSVSPGGTVTLTCGLKSGSVTSSNYPAWYQQTPGQAPRLLIYNTNSRHSGVPSRFSGSISGNKAALTITGAQPEDEADYYCALYMGSGSANAMFGGGTHLTVLG
B4: 57B6 Fab (Fab, V domains shown)
VH: B3 VH
VL: B3 VL
notes: as for B1
B5: 5F4 Fab (Fab, V domains shown)
VH: EVQVQESGGGLVHPGGSLKLSCAASGFTFDTYAMSWVRQAPGKGLEWVSAISWSGGETFYAESMKGRFTISRNNAKNTLYLQMNSLKSEDTAVYYCARGMGLAEGLTDWGQGTQVTVSS
VL: QAVVTHPPSLSASPGSSVRLTCTLISGDNIGGYDISWYQQKTGSPPRYLLYYYSDSYKHQSSGVPSRFSGSKDASANAGLLLISGLQSEDEADYYCSAYKSGSYKAPVFGGGTHLTVLG
notes: as for B1
B6: 9G2 Fab (Fab, V domains shown)
VH: QVQLVESGGGLMQPGGSLRLSCAASGFTFSSSAMSWVRQAPGKGLEWVSSIYSDSSYTYYADSVKSRFTISTDNAKNTLYLQMNSLKPDDTAVYYCAGSSDYEGSFASWGQGTQVTVSS
VL: QSVVTQPPSLSASPGSSVRLTCTLSSGNSVGNYDISWYQQKAGSPPRYLLYYYSDSVKHQGSGVPSRFSGSSDASANAGLLLISGLQPEDEADYYCSAYKSGSHVFGGGTKLTVLG
notes: as for B1
B7: 9B2 Fab (Fab, V domains shown)
VH: B6 VH with V2L, L4V, S31G, D54H, S56M, G98A, S105L, A107V
VL: B6 VL with S2A, V4L, S25N, G27A, N32S, V57L, K58S, S72T, K100N, S101R
notes: as for B1
B8: 53A2 mAb (human IgG1, HEK293) (antibody, V domains shown)
VH: EVQLVESGGGLVQPGGSLRLSCAASGFTFSVYYMNWVRQAPGKGLEWVSDINNEGGTTYYADSVKGRFTISRDNSKNSLYLQMNSLRAEDTAVYYCARDAGYSNHVPIFDSWGQGTLVTVSS
VL: QAVVTQEPSFSVSPGGTVTLTCGLKSGSVTSDNFPTWYQQTPGQAPRLLIYNTNTRHSGVPDRFSGSILGNKAALTITGAQADDEAEYFCALFISNPSVEFGGGTQLTVLG
B9: 9D1 chimeric llama-human mAb (antibody, V domains shown)
VH: B8 VH with S75A, S78T, Y80T, R87K, A88P, V93L, A97V, L117Q, T119I, S121A
VL: QAVVTQEPSLSVSPGGTVTLTCGLSSGSVTSSHYPGWYQQTPGQAPRLLIFNTNSRHSGVPSRFSGSISGNKAALTITGAQPEDEADYYCALLNIDDGSTMFGGGTHLTVLG
notes: also called mAb 9D1
B10: 41D12 mAb (human IgG1, HEK293) (antibody, V domains shown)
VH: B8 VH
VL: B8 VL with F10L, S11T
B11: 53H1 mAb (human IgG1, HEK293) (antibody, V domains shown)
VH: B8 VH
VL: B8 VL with A2T
B12: 40F1 mAb (human IgG1, HEK293) (antibody, V domains shown)
VH: B8 VH with T57A, L117Q
VL: B8 VL
B13: 35G2 mAb (human IgG1, HEK293) (antibody, V domains shown)
VH: B8 VH with S75A, S78T, R87K, A88P
VL: B8 VL with A2T, D32T, T55S, E87D
B14: 9D1 Fab (Fab, V domains shown)
VH: B8 VH with S75A, S78T, Y80T, R87K, A88P, V93L, A97V, L117Q, T119I, S121A
VL: B9 VL
notes: as for B1
B15: 4D2 Fab (Fab, V domains shown)
VH: QVQLQESGPGLVKPSQTLSLACTVSGGSITTSYYYWSWIRQPPGKGLEWMGAIGSRGSTYYSPSLKTRTSISRDTSKNQFTLQLSSVTPEDTAVYYCARVTGEITYNSGSYYYTLNLFDYWGQGTQVTVSS
VL: QSVLTQPPSLSASPGSSVRLTCTLSSGNSVGNYDISWYQQKAGSPPRYLLYYYSDSYKNQGSGVPSRFSGSKDPSANAGLLLISGLQAEDEADYYCSVSNSGTYKPVFGGGSKLTVLG
notes: as for B1

Legend:
[1] = biological target: T1, recombinant human CD70 (Flag-TNC-CD70); assay: CD27-CD70 inhibition ELISA, human Flag-TNC-CD70
[2] = biological target: T1, recombinant human CD70 (Flag-TNC-CD70); assay: blocking ELISA of Example 19: CD27 Fc chimera on anti-Flag-captured Flag-TNC-CD70
[3] = biological target: T2, rhesus recombinant CD70 …; assay: Biacore, Fab over immobilised rhesus CD70
[4] = biological target: T2, rhesus recombinant CD70 …; assay: inhibition ELISA: CD27 binding to FLAG-TNC-rhesus CD70
From the text: In this assay, Flag-TNC-CD70 is captured by an anti-Flag mAb and binding of CD27-Fc is detected via a biotinylated anti-CD27 mAb and strep-HRP in the absence or presence of CD70 Fabs (FIGS. 2 and 3) or CD70 mAbs (FIG. 4). In FIG. 2B it can be seen that 27B3, which has an identical VH as 9D1, but contains a somewhat different light chain, seems to block binding of CD27 to CD70 more efficiently, which was in line with the better off rate of this Fab as measured on Biacore (data not shown). Table 3 indicates the blocking potency (expressed as IC50) for the various llama-human chimeric mAbs tested in the CD70 inhibition ELISA. […] FIG. 3 is a composite of an experiment testing llama CD70 Fabs for blocking activity (in the inhibition ELISA, see white bars) and for CD70 binding (binding ELISA, black bars). For the binding ELISA, Flag-TNC-CD70 is captured by an anti-Flag mAb and binding of the Fabs is detected using an anti-myc-HRP mAb, which recognizes the MYC tag fused to the C-terminus of the Fd fragment. For comparison purposes, known monoclonal antibodies to CD70 (SGN70 described in US 2010/0129362 A1, clone 1F6; and MDX69A7 described in WO2008/074004FIGS. 5A and 5B) were tested in parallel. […] Of interest is clone 59D10, which as Fab has no blocking activity, but when converted into a chimeric IgG was antagonistic (see Table 3). […]

[5] = biological target: T3, human CD70 on the surface of cells; assay: cell-based or functional assay
[6] = biological target: T1, recombinant human CD70 (Flag-TNC-CD70); assay: inhibition ELISA: CD27-Fc binding to anti-Flag-captured Flag-TNC-CD70
Description: From selected phage transfected into TG1, individual colonies were picked randomly for growth in 96 well plates. After IPTG induction according to standard protocols periplasmic fractions (peris) containing Fabs were prepared. […] In this assay, Flag-TNC-CD70 is captured by an anti-Flag mAb and binding of CD27-Fc is detected via a biotinylated anti-CD27 mAb and strep-HRP in the absence or presence of CD70 Fabs (FIGS. 2 and 3) or CD70 mAbs (FIG. 4). In FIG. 2B it can be seen that 27B3, which has an identical VH as 9D1, but contains a somewhat different light chain, seems to block binding of CD27 to CD70 more efficiently, which was in line with the better off rate of this Fab as measured on Biacore (data not shown). Table 3 indicates the blocking potency (expressed as IC50) for the various llama-human chimeric mAbs tested in the CD70 inhibition ELISA. […] FIG. 3 is a composite of an experiment testing llama CD70 Fabs for blocking activity (in the inhibition ELISA, see white bars) and for CD70 binding (binding ELISA, black bars). For the binding ELISA, Flag-TNC-CD70 is captured by an anti-Flag mAb and binding of the Fabs is detected using an anti-myc-HRP mAb, which recognizes the MYC tag fused to the C-terminus of the Fd fragment. […]

Molecule	koff [3] [s⁻¹]	Raji co-culture assay IC50 relative to 27B3 [5]	also measured
MDX1411 mAb (antibody)	–	–	IC50 [1]: 0.044 µg/mL; IC50 [2]: 5.5 µg/mL
B1	0.0002	–	–
B2	0.00032	–	–
B3	–	–	IC50 [4]: 0.135 µg/mL
B4	4e-05	–	–
B5	0.0005	–	–
B6	0.00018	–	–
B7	0.00061	–	–
B8	–	0.8 fold relative to 27B3	–
B9	–	–	fold less potent than 27B3 mAb [6]: 3 fold
B10	–	1.2 fold relative to 27B3	–
B11	–	1.6 fold relative to 27B3	–
B12	–	1.8 fold relative to 27B3	–
B13	–	1.4 fold relative to 27B3	–
B14	0.0002	–	–
B15	0.00029	–	–
